Measurements published in US20070022484A1 (published 2007).

Biological target: C-terminal sRL91 (N-terminal SH2 domain SH2n of p85 subunit of bovine phosphatidylinositol 3-kinase fused … (bovine (SH2n part)))
Test: cell-based or functional assay

Chain of C-terminal sRL91 (N-terminal SH2 domain SH2n of p85 subunit of bovine phosphatidylinositol 3-kinase fused … (bovine (SH2n part))) (chain, as listed by the source limits assumed): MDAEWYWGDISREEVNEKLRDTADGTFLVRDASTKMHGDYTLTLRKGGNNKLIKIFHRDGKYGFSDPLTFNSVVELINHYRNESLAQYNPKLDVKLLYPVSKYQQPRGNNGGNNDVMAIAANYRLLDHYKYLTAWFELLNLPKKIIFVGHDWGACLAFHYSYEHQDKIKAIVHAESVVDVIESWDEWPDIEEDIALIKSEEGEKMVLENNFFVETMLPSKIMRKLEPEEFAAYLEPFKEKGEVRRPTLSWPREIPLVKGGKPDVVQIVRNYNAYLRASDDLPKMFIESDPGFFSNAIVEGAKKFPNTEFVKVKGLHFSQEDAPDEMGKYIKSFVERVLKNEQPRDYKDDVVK

B1: N-terminal sRL91 (N-split Renilla luciferase hRLn, split between Ser91 and Tyr92, fused through a linker to Y941 peptide, with Myc epitope) (other, not shown: small tags and cut ends)
chain: MTSKVYDPEQRKRMITGPQWWARCKQMNVLDSFINYYDSEKHAENAVIFLHGNAASSYLWRHVVPHIEPVARCIIPDLIGMGKSGKSGNGSCLSLASNNGNGRNGASLETEEAYMKMDLGPG
modifications: the 941-tyrosine residue of the Y941 peptide is phosphorylated by the insulin receptor upon insulin stimulation
  luminescence activity with 10^-7 M insulin against its absence (split Renilla luciferase complementation, CHO-HIR cells expressing sRL91): 25 fold
